We go through 20 sequences from the DeepSol protein solubility set.

The data set can be described thus: soluble on expression in E. coli; label from the status in PepcDB or PDB records.
Regarding “MGSDKIHHHHHHMPLLDIRNLTIELDTPHGRVKALEKVSLMLHAGEIHGLVGESGSGRSLLARAVLGIPGPNWTITADRMMWDGRNLMEMSDVERRNLMGKDMAMIFQDPSGSLDPVITIGAQLIEAMPADKNVPFWRRGRERRLTAQKWLHKVGIKDPKRVMASYPWETSEGECQKVMIAMALANQPRLLIADEPTNSMEPSTQAQIFRLLAQLNQLQGVTIMMISHELETLADWCNNLTVLYCGQVMESGPIDELIREPLHPYTKALMDHLPDYRGNLPHKSLMPVLPGSAPALQHLPIGCRLGPRCPEARRECVHQPQLQHQKDRYYACHFPYRTETNNDDTAA”, the “soluble on expression in E. coli” value is reported as “not soluble”.

“MGSDKIHHHHHHMKRARAATNLPETRQPRSAHFAQAGQRWSDDVDASTTGVSKHDMCFAVASRESVRPYVLPRNKNDMADAEAICEAVTRPNMRFVAVKTAAQQSVLMLHRCRALLVRQRTMLANAIRAHLAEFGIVMPQGIRTLLTALIAPKDEVNDLPHLVRVALAPMAANLIELGQRIKGLEIEIAREHRGNETSRRLETIPGFGVMTSTAMAATVADPTAFKSGREFAAWLGLTPRESSSGGKQRLGGITKMGDGYLRTLLVVGATAVIRFAREEGSAKTAWIRKLMEKKPAKVVAVALANKMARIAWPLMTRGEVYRVIPA”: the “soluble on expression in E. coli” value was “not soluble”.

As for “MGSDKIHHHHHHADILNCILPAEMLTGTDIDYNRPYDKSLNAYPIYIEVNNGTDLTRLAPTFELTEGASIEPANGSTQNFTNPVRYTVTSEDKNWHRTYAINIHYPETKSIPTVFNFENVKTVPYNKNEYYVLYEAASGYSTLTWSSGNQGFALTGSGYTPNDFPTSISPNGRTGNCLQLITRKTGSLGTLVGMPIAAGNLFIGSFDIGSAMSDALSATKFGTTFYYEPIKLVGYYKYKAGPEFYENGESTNRKDVFNIYALFYEKTKDVQMLDGHIAKNNYEHENMVAAAVITDTHETSEWTRFELDFNYEHYGKTIDPQKLANGGYNVSIVLSASKDGDVFQGAPGSTLLIDDLELVCKQPLR”, the “soluble on expression in E. coli” value is reported as “not soluble”.

Turning to “MTEPGERRRRTTSTATRERGVRDARDAARRAADALSELIRHHLEGVSAVCRGEDGGWIVNVDVLEVARIPDTTSLLATYEVELDPAGDLLQYRRIARYRRGAQDQLEHHHHHH”, the “soluble on expression in E. coli” value was “not soluble”.

Consider “MPKETPSKAAADALSDLEIKDSKSNLNKELETLREENRVKSDMLKEKLSKDAENHKAYLKSHQVHRHKLKEMEKEEPLLNEDKERTVLFPIKYHEIWQAYKRAEASFWTAEEIDLSKDIHDWNNRMNENERFFISRVLAFFAASDGIVNENLVENFSTEVQIPEAKSFYGFQIMIENIHSETYSLLIDTYIKDPKESEFLFNAIHTIPEIGEKAEWALRWIQDADALFGERLVAFASIEGVFFSGSFASIFWLKKRGMMPGLTFSNELICRDEGLHTDFACLLFAHLKNKPDPAIVEKIVTEAVEIEQRYFLDALPVALLGMNADLMNQYVEFVADRLLVAFGNKKYYKVENPFDFMENISLAGKTNFFEKRVSDYQKAGVMSKSTKQEAGAFTFNEDF”, for which the “soluble on expression in E. coli” value is on record as “soluble”.

Turning to “MTRIIASLSEVSAGYSALFCDLWGCLHDGKRPFAEAVEALRAFRARGGTVLLMTNAPRPKPSVVRQLESIGVPPDCYDEVTSSGDAAQYALVTGAVGRRVYHLGPQKDETFFTELSPDLQKVAATEAPIVRVPLEEAEGIVCTGLFDDLTETPEDYRATLLYAKTQGLKLLCANPDIVVDFGDKRIYCAGAIAEAYDAMGGQSLYFGKPHPPIYDLARRRLEALRPGVPADEILCVGDGIATDIRGAVAEGLDSLFITGGLAASVFGENGE”, the “soluble on expression in E. coli” value was “not soluble”.

Regarding “MRIAIDFDGTIVEHRYPRIGKEIPFAIATLKQLQTERHLLVLWTVREGKLLDEAVDFCRKRGLEFYAVNANHPEEEVRNDMTSPCRKVVADLYIDDLNVGKLPDWGAIYEMIHNRWSYERYLNEIHGFEKQKKISIWKRIFR”, the “soluble on expression in E. coli” value is listed as “not soluble”.

In the case of “MHEFTDTRDDSTLDEIWLVEHYPVFTQGQAGKAEHILMPGDIPVIQSDRGGQVTYHGPGQQVMYVLLNLKRRKLGVRELVTLLEQTVVNTLAELGIEAHPRADAPGVYVGEKKICSLGLRIRRGCSFHGLALNVNMDLSPFLRINPCGYAGMEMAKISQWKPEATTNNIAPRLLENILALLNNPDFEYITALEHHHHHH”, the “soluble on expression in E. coli” value is “not soluble”.

Turning to “MRQLLLISDLDNTWVGDQQALEHLQEYLGDRRGNFYLAYATGRSYHSARELQKQVGLMEPDYWLTAVGSEIYHPEGLDQHWADYLSEHWQRDILQAIADGFEALKPQSPLEQNPWKISYHLDPQACPTVIDQLTEMLKETGIPVQVIFSSGKDVDLLPQRSNKGNATQYLQQHLAMEPSQTLVCGDSGNDIGLFETSARGVIVRNAQPELLHWYDQWGDSRHYRAQSSHAGAILEAIAHFDFLS”, the “soluble on expression in E. coli” value was “soluble”.

Consider “MLKMKNNGGGCLAYISDCSVYLPVWKLKRDEISKETGMPSMGGERAVAHWDEDSITMAVEAARKFDGAFDAVIFASSSPPFRIKQCASFIASALDLPDSTFTMDITDTMRAATDALITANEFVDSGRFSRVLVVAGDKIPTKPGTLYEQLYGDAAAAVVVEKEGGAKILGYSTSTKPLPGSWMLADDDTVRDYDMRVDARYGYAASVQKAAMPLFAKLGLSPADIDRIVASAPDPKSYQGLLKAVGARPEEFYFDSVGIAGSAHPLLLLATQLEREGRILLGGYGEGADVIAVEIEQAMDSNMGRMLESRKEISYGDYLFNRGFVGVRDAPDRPSLTKFWRDEKSIIRFYGMKCKSCGTVSYPISRCCIECGAKDNYEEVRLGERGKIYTFTIDYLVMPGNYAGDGVHPHFIAVVDLDGGGRVLFELTDTLRDFSGVECDAEVERTFRLLFEKNRFRYYGWKARLPRLEHHHHHH”, for which the “soluble on expression in E. coli” value is “soluble”.

Regarding “MRRTLHNELQELRGNIRVYCRIRPALKNLENSDTSLINVNEFDDNSGVQSMEVTKIQNTAQVHEFKFDKIFDQQDTNVDVFKEVGQLVQSSLDGYNVCIFAYGQTGSGKTFTMLNPGDGIIPSTISHIFNWINKLKTKGWDYKVNCEFIEIYNENIVDLLRSDNNNKEDTSIGLKHEIRHDQETKTTTITNVTSCKLESEEMVEIILKKANKLRSTASTASNEHSSRSHSIFIIHLSGSNAKTGAHSYGTLNLVDLAGSERINVSQVVGDRLRETQNINKSLSCLGDVIHALGQPDSTKRHIPFRNSKLTYLLQYSLTGDSKTLMFVNISPSSSHINETLNSLRFASKVNSTRLVSRK”, the “soluble on expression in E. coli” value was “soluble”.

As to “MGSDKIHHHHHHMNAVISILVENTTPSPSLIGEYGFSALVEVDERKILFDTGSSDALFKNAENLGVKLEEVEALVISHGHFDHTSAVIPFLQRFGPKKLYLHPGIFSQRYLQGKKGLGPNIGCPFEPEDLVKNGAEIIFIDSFSEIMPGVFISGEIPRRNSFENTGGNFKVATHHGLLEDRLLDDMALLVDHPEGLIIISGCAHSGMINTIEYIREKTGRSKILAFIGGTHLITASEDRLAQTIAVLKMMDIEKIAVGHCTGFYAAARLLNELGPRVIKADTGMSFSF”, the “soluble on expression in E. coli” value was “not soluble”.

For the sequence “MAKLTALTLLGMGLALFDRQKSSFQTRFNVHREVTPVELPNCNLVKGIDNGSEDLEILPNGLAFISSGLKYPGIMSFDPDKSGKILLMDLNEKEPAVSELEIIGNTLDISSFNPHGISTFIDDDNTVYLLVVNHPGSSSTVEVFKFQEEEKSLLHLKTIRHKLLPSVNDIVAVGPEHFYATNDHYFIDPYLKSWEMHLGLAWSFVTYYSPNDVRVVAEGFDFANGINISPDGKYVYIAELLAHKIHVYEKHANWTLTPLRVLSFDTLVDNISVDPVTGDLWVGCHPNGMRIFFYDAENPPGSEVLRIQDILSEEPKVTVVYAENGTVLQGSTVAAVYKGKLLIGTVFHKALYCDL”, the “soluble on expression in E. coli” value is reported as “soluble”.

Turning to “MAKKIVIIGAGAGGGISLSKLRRVLKDEDVDITIIDKLGRTDFQPSYIFLSIGQKRVKDLSRDFNLLNGGHVKTVKDEVVSVDAQNRIVNTLKGKYSYDYLIMSPGPDIKKDSFEGIEATDSVWTLEDSLKLRAKIKEFNGGKILISVSSQWYKCPPVPWEMALLLDDYFRKKNMRDKVEITVAHPVSKPMEMYGPGLSDPFAKMLEKRSIGGLYGKKLLGIDASKKEAVFEDDDRLRFDLSIVAPPHSPPSFIKDNEYLRSKNGWASTNLKDFRNPKYDDIFAIGDVIAPTIQIGMAGVLAHFQADTASSAIAEDIIGYPFIDYNKNAVCIIATGSSGVFSYCDLSAKLTDPSVKFPECRMIGNDPLFRFAHDLYEVNFLSSIYGNRLEHHHHHH”, the “soluble on expression in E. coli” value is “not soluble”.

With “MSLEVQDDINSVDDIDSKLYHSVEWFYENKMYEDAIVATIAIIRRFLLCGKLAPLKAFSKGKNFKLLLVEYDTQLQTKSLIFQNEPEIVTEEDKEELLAYASLIEGLILIDEWKKFVSTQINSQGKWLSTGVDSSIDKTSKTLLNLIFKWFKNTSSEKDSDLAIYSEFRSIYVPYLIIELLKIFQNAREKDWKYMRSAFSLINDVANEEQNDFLSCFLKCGRLDEFLVKAGEVSIVAVEKGISGIFYEGHHHHHH”, the “soluble on expression in E. coli” value is recorded as “not soluble”.

As to “GMGKGKSAIESQIRMLKLAKEIVEEVASSFPNLEEVYIFGSRARGDYLDTSDIDILFVFKGIKEMNVFDRMYMVSRFIRGNVDYIVLDEGEKDRVKDKVLFWKREKGFVLL”, the “soluble on expression in E. coli” value is on record as “soluble”.

“MYLIEPIRNGKRITDGAVALAMQVYVQENLFLDDDILFPYYCDPKVEIGKFQNAVVETNQEYLKEHHIPVVRRDTGGGAVYVDSGAVNICYLINDNGIFGDFKRTYQPAIEALHHLGATEVEMSGRNDLVIDGKKVSGAAMTIANGRVYGGYSLLLDVDFEAMEKALKPNRKKIESKGIRSVRSRVGNIREHLAPQYQGITIEEFKDLMVCQLLQIETISQAKRYDLTEKDWQQIDALTERKYHNWEWNYGNAPQYRYHRDGRFTGGTVDIHLDIKKGYIAACRIYGDFFGKADIAELEGHLIGTRMEKEDVLATLNAIDLAPYLGAITAEELGDLIFS”: the “soluble on expression in E. coli” value was “soluble”.

In the case of “MVQESIISSFRGKLENDPSKSTSLATVETLLEVLDRSRATTVAEFQNELNQVVAALEKTDYSSTSIRSAADLFTRFTSLAPAALLDQEDFSQVLDLYRQRARSFIKNVRGSRAKISKCARLFFTHHMNILTHSYSKVVLETILDAHKSGYHLHVWVTESQPDASGKLVFEELKKNGVPTTLVLDSCVGYVMERIQAVLVGAEGVMETGGIINKIGTVNVCIIAKSRHVPVYVCAETIKFVREFPLNQADIPQEFKYRTSVIERNNLELEHPDVDYTAPEFLTLIITDVGAMKPEAVGEELIKMYI”, the “soluble on expression in E. coli” value is “not soluble”.

As to “MNRQPIVQLSNLSWTFREGETRRQVLDHITFDFEPGEFVALLGQSGSGKSTLLNLISGIEKPTTGDVTINGFAITQKTERDRTLFRRDQIGIVFQFFNLIPTLTVLENITLPQELAGVSQRKAAVVARDLLEKVGMADRERTFPDKLSGGEQQRVAISRALAHNPMLVLADEPTGNLDSDTGDKVLDVLLDLTRQAGKTLIMATHSPSMTQHADRVVNLQGGRLIPAVNRENQTDQPASTILLPTSYE”, the “soluble on expression in E. coli” value is “not soluble”.

Consider “MAAGSEATTPVIVAAGAGGEEGEHVKPFKPEKAKEIIMSLQQPAIFCNMVFDWPARHWNAKYLSQVLHGKQIRFRMGMKSMSTVPQFETTCNYVEATLEEFLTWNCDQSSISGPFRDYDHSKFWAYADYKYFVSLFEDKTDLFQDVKWSDFGFPGRNGQESTLWIGSLGAHTPCHLDSYGCNLVFQVQGRKRWHLFPPEDTPFLYPTRIPYEESSVFSKINVVNPDLKRFPQFRKAQRHAVTLSPGQVLFVPRHWWHYVESIDPVTVSINSWIELEEDHLARVEEAITRMLVCALKTAENPQNTRAWLNPTEVEETSHAVNCCYLNAAVSAFFDRCRTSEVVEIQALRTDGEHMKKEELNVCNHMEVGQTGSQNLTTGTDKPEAASPFGPDLVPVAQRSEEPPSERGGIFGSDGKDFVDKDGEHFGKLHCAKRQQIMSNSENAIEEQIASNTTTTPQTFISTDDLLDCLVNPQVTRIVAQLLIQGRSL”, for which the “soluble on expression in E. coli” value is recorded as “not soluble”.
